Changes are numbered by the printed parent chain.
B1: 1.51a (VHH)
VHH: EVQLVESGGGVVRPGGSLRLSCAASGFTFDDYAMSWVRQAPGKGLEWVSGITWNGGSTGYADSVKDRFTISRDNAKNSLYLQMNSLRAEDTALYYCVRDKYSYAWSYDGFDIWGQGTMVTVSS
B2: 1.2a (VHH)
VHH: EVQLVESGGGLVQPGRSLRLSCAASGFTFDDYAMHWVRQAPGKDLEWVSGISWNGGSMGYAASVKGRFTISRDNAKNSLYLQMNSLRAEDTALYYCVKDKGPGLIGSTADYYGLDVWGQGTTVTVSS
B3: 1.17a (VHH)
VHH: B2 VHH with V5L, R16G, D44G, G55S, G66D, R87T, A88T, Y112H
B4: 1.15a (VHH)
VHH: B2 VHH with V5L, A23T, D44G, L45R, G55S, A62E, T91S, L114M
B5: 1.7a (VHH)
VHH: B2 VHH with L11V, V12I, D44G, L45R, A62E, K76Q, T91S, I105T, S107T, L114M
B6: 1.11a (VHH)
VHH: B2 VHH with V5L, L11F, L20I, A62E, Q82K, A88V
B7: 1.5a (VHH)
VHH: B2 VHH with D44G, A62D, G66D, S85R, Y112H
B8: 1.21a (VHH)
VHH: B2 VHH with K98R, D99E, I105T, T122M
B9: 1.46a (VHH)
VHH: B2 VHH with M34L, G55A, M58Y, A62D, K98R, D99E, I105T, V116A, T122M
B10: 1.24a (VHH)
VHH: B2 VHH with G55S, K98R, D99E, I105T, V116A, T122M
B11: 1.10a (VHH)
VHH: B2 VHH with D30A, D44G, L45R, A62E, T91S, I105T, S107T, L114M
B12: 1.49a (VHH)
VHH: B2 VHH with M34F, G55S, M58Q, A62D, K98R, D99E, I105T, V116A, T122M
B13: 1.23a (VHH)
VHH: B2 VHH with G55S, K98R, D99E, I105T, T122M
B14: 1.9a (VHH)
VHH: B2 VHH with L11C, L20I, D44G, L45R, A62E, T91S, L114M
B15: 1.16a (VHH)
VHH: B2 VHH with E1Q, D44G, L45R, A62E, T91S, L114M
B16: 1.30a (VHH)
VHH: B2 VHH with M34G, K98R, D99E, I105T, V116A, T122M
B17: 1.40a (VHH)
VHH: B2 VHH with M34L, M58Q, A62D, K98R, D99E, I105T, V116A, T122M
B18: 1.44a (VHH)
VHH: B2 VHH with M34L, G55S, M58Y, A62D, K98R, D99E, I105T, V116A, T122M
B19: 1.48a (VHH)
VHH: B2 VHH with M34L, G55S, M58Q, A62D, K98R, D99E, I105T, V116A, T122M
B20: 1.4a (VHH)
VHH: B2 VHH with V5L, D30A, D44G, L45R, A62E, T91S, I105T, S107T, L114M
B21: 1.28a (VHH)
VHH: B2 VHH with G55A, K98R, D99E, I105T, V116A, T122M
B22: 1.42a (VHH)
VHH: B2 VHH with M34F, M58Q, A62D, K98R, D99E, I105T, V116A, T122M
B23: 1.43a (VHH)
VHH: B2 VHH with M34F, G55A, M58Y, A62D, K98R, D99E, I105T, V116A, T122M
B24: 1.33a (VHH)
VHH: B2 VHH with M58Y, A62D, K98R, D99E, I105T, V116A, T122M
B25: 1.22a (VHH)
VHH: B2 VHH with K98R, D99E, I105T, V116A, T122M
B26: 1.14a (VHH)
VHH: B2 VHH with D31G, D44G, L45R, G55S, A62E, T91S, I105T, L114M
B27: 1.12a (VHH)
VHH: B2 VHH with E1Q, D44G, L45R, A62D, G66D, I105T, Y112H, L114M
B28: 1.36a (VHH)
VHH: B2 VHH with G55A, A62D, K98R, D99E, I105T, V116A, T122M
B29: 1.35a (VHH)
VHH: B2 VHH with M58K, A62D, K98R, D99E, I105T, V116A, T122M
B30: 1.47a (VHH)
VHH: B2 VHH with M34F, G55S, M58Y, A62D, K98R, D99E, I105T, V116A, T122M
B31: 1.45a (VHH)
VHH: B2 VHH with M34L, G55A, M58Q, A62D, K98R, D99E, I105T, V116A, T122M
B32: 1.27a (VHH)
VHH: B2 VHH with M58R, K98R, D99E, I105T, V116A, T122M
B33: 1.37a (VHH)
VHH: B2 VHH with M34F, A62D, K98R, D99E, I105T, V116A, T122M
B34: 1.13a (VHH)
VHH: B2 VHH with E1Q, K76Q
B35: 1.8a (VHH)
VHH: B2 VHH with D44G, G55S, A62D, G66D, Y112H
B36: 1.29a (VHH)
VHH: B2 VHH with G55S, A62D, K98R, D99E, I105T, T122M
B37: 1.31a (VHH)
VHH: B2 VHH with M34L, K98R, D99E, I105T, V116A, T122M
B38: 1.3a (VHH)
VHH: B2 VHH with V5L, D44G, L45R, G55S, A62D, G66D, Y112H
B39: 1.32a (VHH)
VHH: B2 VHH with G55S, A62D, K98R, D99E, I105T, V116A, T122M
B40: 1.38a (VHH)
VHH: B2 VHH with M34L, A62D, K98R, D99E, I105T, V116A, T122M
B41: 1.18a (VHH)
VHH: B2 VHH with E1Q
B42: 1.50a (VHH)
VHH: B2 VHH with M34F, G55A, M58Q, A62D, K98R, D99E, I105T, V116A, T122M
B43: 1.39a (VHH)
VHH: B2 VHH with M34L, M58Y, A62D, K98R, D99E, I105T, V116A, T122M
notes: also called Humabody 1.39a
B44: 1.34a (VHH)
VHH: B2 VHH with M58Q, A62D, K98R, D99E, I105T, V116A, T122M
B45: 1.25a (VHH)
VHH: B2 VHH with M58Q, K98R, D99E, I105T, V116A, T122M
B46: 1.41a (VHH)
VHH: B2 VHH with M34F, M58Y, A62D, K98R, D99E, I105T, V116A, T122M
B47: 1.6a (VHH)
VHH: EVQLVESGGGVVQPGRSLRLSCAASGFTFSSYAMHWVRQAPGKGREWVSGISWNSGSMGYAESVKGRFTISRDNAKNSLYLQMNSLRAEDSALYYCVKDKGPGLTGTTADYYGMDVWGQGTTVTVSS
B48: 1.109b (VHH)
VHH: EVQLVESGGGLVKPGGSLRLSCAASGFTFSDESFTWMRQAPGKGLEWVSYISSGGGVKFYADSVKGRFTISRDNAKNSLYLQMNSLRAEDTAVYYCAREAPLRLGESPHDAFDISGQGTMVTVSS
B49: 1.113b (VHH)
VHH: B48 VHH with F34S
B50: 1.111b (VHH)
VHH: B48 VHH with F34W
B51: 1.110b (VHH)
VHH: B48 VHH with F34N
B52: 1.112b (VHH)
VHH: B48 VHH with F34I
B53: 1.115b (VHH)
VHH: B48 VHH with F34G
B54: 1.114b (VHH)
VHH: B48 VHH with F34H

Biological target: T1, human PD-1 expressed on cells (CHO TREX human PD1 cell line, full-length human PD-1 sequence) (human, UniProt Q15116 21-288)
T1 construct: Also used for human PD-1 on Jurkat reporter cells, on PathHunter cells and on PHA-stimulated human CD4+ T cells; also called CHO human PD1 cells; CHO human PD-1 cells
T1 sequence (Q15116 21-288): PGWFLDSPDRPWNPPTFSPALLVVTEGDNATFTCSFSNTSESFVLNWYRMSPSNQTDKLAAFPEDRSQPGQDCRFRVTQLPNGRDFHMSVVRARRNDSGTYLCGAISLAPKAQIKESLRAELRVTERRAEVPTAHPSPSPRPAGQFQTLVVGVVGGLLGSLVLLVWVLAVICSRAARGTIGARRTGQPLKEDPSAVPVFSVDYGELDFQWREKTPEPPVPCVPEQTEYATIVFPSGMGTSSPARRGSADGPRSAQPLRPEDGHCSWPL
Assay: worded summary of the screens

Binder	binding result
B1	binds
B2	binds
B3	binds
B4	binds
B5	binds
B6	binds
B7	binds
B8	binds
B9	binds
B10	binds
B11	binds
B12	binds
B13	binds
B14	binds
B15	binds
B16	binds
B17	binds
B18	binds
B19	binds
B20	binds
B21	binds
B22	binds
B23	binds
B24	binds
B25	binds
B26	binds
B27	binds

Binder	binding result
B28	binds
B29	binds
B30	binds
B31	binds
B32	binds
B33	binds
B34	binds
B35	binds
B36	binds
B37	binds
B38	binds
B39	binds
B40	binds
B41	binds
B42	binds
B43	binds
B44	binds
B45	binds
B46	binds
B47	binds
B48	binds
B49	binds
B50	binds
B51	binds
B52	binds
B53	binds
B54	binds

Reference: patent US20220306744A1 (CRESCENDO BIOLOGICS, published 2022)
